Experimental data reported in patent US20240174744A1 (SCIRHOM, published 2024).
Substitutions are numbered along the chain they refer to.

B1: antibody 34 (antibody, V domains shown)
VH: QVTLKESGPGILQPSQTLSLTCSFSGFSLSTFSLGVGWIRQSSGKGLEWLAHIWWDDEKYYNPALKSRLTISKDTSKNQVFLKIANVDAADTATYYCARAYYSKSYYALDYWGQGTSVTVSS
VL: DIQMTQSPSSLSASLGERVSLTCRASQEISGYLSWLQQKPDGTIKRLIYAASTLDSGVPKRFSGSRSGSDYSLAISSLESEDFADYYCLQYANFPFTFGSGTKLEIK
notes: Mouse IgG, kappa light chain; also called clone #34; m34
B2: antibody 43 (antibody, V domains shown)
VH: QVALKESGPGILQPSQTLSLTCSFSGFSLSTFGMGVGWIRQSSGKGLEWLANIWWDDDKYYNPALKSRLTISKDASKNQAFLKIANVDTADTATYYCARIGNYGSNYWYFDVWGTGTTVTVSS
VL: QIVLTQSPAIMSASPGERVTMTCSANSRISYMYWYQQKPGSSPRLLIYDTSNLASGVPVRFSGSGSGTSYSLTISRMEAEDAATYNCQQWSSYPLTFGAGTKLELK
notes: Mouse IgG, kappa light chain; also called clone #43
B3: antibody 42 (antibody, V domains shown)
VH: B2 VH with A3T, F24L, M34R, S42P, N52H, D58E, A75T, A80V, K83R, G101Q
VL: B2 VL with Q1L, R18K, S24G, N26T, Y33F, L45V, M77V, A82V, N86Y, S91N
notes: Mouse IgG, kappa light chain; also called clone #42; m42
B4: antibody 44 (antibody, V domains shown)
VH: B2 VH with A3T, S42P, G44E, N52H, A75T, A80I, A85T, D91E, A98S
VL: QIVLTQSPAVMSASPGEKVTMTCTASSSVYYMYWYQQTPGSSPRLLIYDTSNLASGVPVRFSGSGSGTSYSLTISRMEAEDAATYYCQQWNTYPLTFGAGTKLELK
notes: Mouse IgG, kappa light chain; also called clone #44; m44
B5: antibody 5 (antibody, V domains shown)
VH: B2 VH with A3T, S42P, N52H, D58E, P63S, D74A, A75T, G101S, D111N
VL: QVVLTQSPALMSASPGEKVTMTCSAGSSVSCMYWYQQKPGSSPRVLIYDTSNLASGVPARFTGSGSGTSYSLTISRMEAEDAASYYCQQWNSYPLTFGAGTKLELK
notes: Mouse IgG, kappa light chain; also called clone #5; purified antibody 5
B6: antibody 22 (antibody, V domains shown)
VH: B2 VH with A3T, S42P, N52H, D58E, P63S, D74A, A75T, A80V, G101S, D111N
VL: B5 VL with C31Y, S84T
notes: Mouse IgG, kappa light chain; also called clone #22; m22
B7: antibody 50 (antibody, V domains shown)
VH: QVQLQQSGAELVRPGASVKVSCKASGYAFSNYLIEWVKQRPGQGLEWIGVINPGSGFTKYNEKFKGKATLTADKSSSTAYMQLSSLTSEDSAVYFCARGLYRAMDYWGQGTSVTVSS
VL: DIQMTQSPASQSASLGESVTITCLASQTIGTWLAWYQQKPGKSPQLLIYAAASLADGVPSRFSGGGSGTKFSFKISSLQAEDFVNYYCQQIYSTPYTFGGGTKLEIK
notes: Mouse IgG, kappa light chain; also called clone #50; purified antibody 50
B8: antibody 16 (antibody, V domains shown)
VH: QVTLKESGPGILQPSQTLSLTCSFSGFSLSTFALGVGWIRQPSGRGLEWLAHIWWDDDKYYNPALKSRLTISKDTSKNHVFLKIANVDTADTATYYCARITTYYYGMDYWGQGTSVTVSS
VL: DIVLSQSPATLSVTPGDSVSLFCRASQSIGNHLHWYQQESHASPRLLIKYASQSISGIPSRFSGSGSGTDFTLSINSVETEDFGMYFCQQSYNWPLTFGAGTKLELK
notes: Mouse IgG, kappa light chain; also called clone #16; m16
B9: antibody 3 (antibody, V domains shown)
VH: QVTLKESGPGILQPSQTLSLTCSFSGFSLTTFAMGIGWVRQPSGKGLEWLAHIWWDGEKYNNPVLKSRLTISKDTSKNQVFLRIANVDTPDTATYYCARISSIYYIIDNWGQGTSVTVSS
VL: B8 VL with S5T, D17H, F22S, G30S, H32N, Q38K, E39K, A42E, A51V
notes: Mouse IgG, kappa light chain; also called clone #3; purified antibody 3
B10: antibody 48 (antibody, V domains shown)
VH: B7 VH with A9T, A16T, S30T, A79V, Q82H
VL: B7 VL with G30A, A50G, A52T, S53T, N85S, I91L
notes: Mouse IgG, kappa light chain; also called clone #48; purified antibody 48

molecular target: T1, hiR1-FL-WT-T7 (human iRhom1 full length wild type C-terminally tagged with 3 consecutive copies of the T7 … (human, UniProt Q96CC6 1-855)); test: FACS on cells of the row human iR1 wild type, vs human iR2 wild type = 100%
T1 construct: also called human iRhom1 variant expressed by MEF-DKO-hiR1-FL-WT-T7 cells
T1 sequence: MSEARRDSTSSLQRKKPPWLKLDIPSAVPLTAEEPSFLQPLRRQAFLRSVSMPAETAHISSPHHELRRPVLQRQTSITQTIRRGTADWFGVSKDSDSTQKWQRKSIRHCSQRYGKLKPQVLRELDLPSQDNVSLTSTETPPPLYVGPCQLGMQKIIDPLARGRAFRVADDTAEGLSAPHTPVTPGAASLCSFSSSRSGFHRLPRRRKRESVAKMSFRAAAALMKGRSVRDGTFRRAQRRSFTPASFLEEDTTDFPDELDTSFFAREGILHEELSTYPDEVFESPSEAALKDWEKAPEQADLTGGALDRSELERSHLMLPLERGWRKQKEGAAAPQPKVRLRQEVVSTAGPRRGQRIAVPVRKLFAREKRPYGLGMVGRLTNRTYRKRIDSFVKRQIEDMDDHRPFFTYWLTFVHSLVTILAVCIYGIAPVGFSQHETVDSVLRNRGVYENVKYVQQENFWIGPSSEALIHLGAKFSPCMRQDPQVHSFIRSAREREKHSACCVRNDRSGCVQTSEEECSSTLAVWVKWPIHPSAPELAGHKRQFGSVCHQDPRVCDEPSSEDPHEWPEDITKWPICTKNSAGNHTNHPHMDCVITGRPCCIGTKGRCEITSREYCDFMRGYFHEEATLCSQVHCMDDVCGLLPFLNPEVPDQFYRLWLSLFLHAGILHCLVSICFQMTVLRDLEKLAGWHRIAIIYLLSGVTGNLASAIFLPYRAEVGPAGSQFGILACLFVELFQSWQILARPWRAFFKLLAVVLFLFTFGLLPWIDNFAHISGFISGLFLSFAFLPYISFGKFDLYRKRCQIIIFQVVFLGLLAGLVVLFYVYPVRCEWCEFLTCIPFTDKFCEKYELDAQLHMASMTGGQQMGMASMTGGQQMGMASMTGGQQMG

Binder | grade of loss of binding vs wild type
B1 | 3 grade (3 => 95% loss of binding vs wild type)
B2 | 3 grade (3 => 95% loss of binding vs wild type)
B3 | 3 grade (3 => 95% loss of binding vs wild type)
B4 | 3 grade (3 => 95% loss of binding vs wild type)
B5 | 3 grade (3 => 95% loss of binding vs wild type)
B6 | 3 grade (3 => 95% loss of binding vs wild type)
B7 | 3 grade (3 => 95% loss of binding vs wild type)
B8 | 3 grade (3 => 95% loss of binding vs wild type)
B9 | 3 grade (3 => 95% loss of binding vs wild type)

molecular target: T1, hiR1-FL-WT-T7 (human iRhom1 full length …); test: as above; remark: another data set of the same source

Binder | grade of loss of binding vs wild type
B1 | 3 grade (3 => 95% loss of binding vs wild type)
B2 | 3 grade (3 => 95% loss of binding vs wild type)
B3 | 3 grade (3 => 95% loss of binding vs wild type)
B4 | 3 grade (3 => 95% loss of binding vs wild type)
B5 | 3 grade (3 => 95% loss of binding vs wild type)
B6 | 3 grade (3 => 95% loss of binding vs wild type)
B7 | 3 grade (3 => 95% loss of binding vs wild type)
B8 | 3 grade (3 => 95% loss of binding vs wild type)
B9 | 3 grade (3 => 95% loss of binding vs wild type)

molecular target: T2, human iRhom2 (inactive rhomboid protein 2, isoform 1), endogenously expressed on human cells (human, UniProt Q6PJF5 1-856); test: indirect FACS scatchard analysis on THP-1 cells (endogenous iRhom2)
T2 construct: also called RHBDF2; NP_078875.4
T2 sequence: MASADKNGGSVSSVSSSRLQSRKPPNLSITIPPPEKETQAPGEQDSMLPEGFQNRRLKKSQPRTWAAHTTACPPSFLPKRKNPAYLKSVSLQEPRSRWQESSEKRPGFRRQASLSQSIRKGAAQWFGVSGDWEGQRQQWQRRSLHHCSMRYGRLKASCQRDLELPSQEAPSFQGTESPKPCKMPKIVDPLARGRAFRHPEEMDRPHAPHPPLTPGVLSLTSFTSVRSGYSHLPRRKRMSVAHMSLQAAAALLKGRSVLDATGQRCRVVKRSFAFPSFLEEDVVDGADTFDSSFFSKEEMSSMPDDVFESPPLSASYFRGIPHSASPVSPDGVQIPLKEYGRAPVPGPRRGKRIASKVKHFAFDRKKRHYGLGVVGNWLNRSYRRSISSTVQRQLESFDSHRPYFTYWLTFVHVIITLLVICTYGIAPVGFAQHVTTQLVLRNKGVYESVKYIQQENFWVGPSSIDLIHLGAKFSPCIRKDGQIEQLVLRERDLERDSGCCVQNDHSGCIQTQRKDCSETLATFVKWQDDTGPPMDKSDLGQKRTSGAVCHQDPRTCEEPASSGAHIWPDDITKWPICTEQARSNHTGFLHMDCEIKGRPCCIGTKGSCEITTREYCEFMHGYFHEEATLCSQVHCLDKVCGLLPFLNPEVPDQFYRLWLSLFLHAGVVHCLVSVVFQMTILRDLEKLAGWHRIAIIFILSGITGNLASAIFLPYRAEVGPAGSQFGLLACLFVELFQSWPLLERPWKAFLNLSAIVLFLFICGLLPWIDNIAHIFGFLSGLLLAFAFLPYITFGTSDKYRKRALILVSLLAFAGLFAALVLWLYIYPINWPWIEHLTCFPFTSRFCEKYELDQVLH
Method: In brief, human THP-1 cells (American Type Culture Collection, USA) were harvested with 10 mM EDTA in PBS, washed and resuspended in FACS buffer (PBS, 3% FBS, 0.05% sodium azide), and seeded in Nunc U-bottom 96-well plates (Thermo Fisher Scientific, USA) at approximately 3×10⁵ cells per well. In order to pellet cells and remove supernatants, the plates were centrifuged at 1,500 rpm and 4° C. for 3 minutes. For primary staining, cells were resuspended in 100 μl per well of either FACS buffer alone (controls) or serial two-fold dilutions (in total 22 concentrations) of the purified antibodies 3, 5, 16, 22, 34, 42, 43, 44, 48, and 50 of the present disclosure in FACS buffer starting at 40 μg/ml and incubated on ice for 1 hour. Afterwards, plates were centrifuged at 1,500 rpm and 4° C. for 3 minutes and washed twice with 200 μl per well of FACS buffer. For secondary staining, cells were spun down and resuspended in 100 μl per well of PE-conjugated goat anti-mouse IgG F(ab′)2 detection fragment (Dianova, Germany) diluted 1:100 in FACS buffer. Protected from light, the cell suspensions were incubated on ice for 1 hour. Plates were then centrifuged at 1,500 rpm and 4° C. for 3 minutes and washed three times with 200 μl per well of FACS buffer. Finally, cells were resuspended in 150 μl per well of FACS buffer and analyzed using a BD Accuri™ C6 Plus flow cytometer (Becton Dickinson, Germany). Applying Prism8 software (GraphPad Sowtware, USA), the respective KD value for each of the antibodies of the present disclosure were calculated.

Binder | Kd
B1 | 1.94 nM
B2 | 4.55 nM
B3 | 1.9 nM
B4 | 0.44 nM
B5 | 3.35 nM
B6 | 2.04 nM
B10 | 1.73 nM
B7 | 1.43 nM
B8 | 0.34 nM
B9 | 2.97 nM
